Assay results from the supplement of paper PMC11865577.

Assays:
Assay in all cases: pull-down binding Z-score (relative to library population); higher = stronger binding
[1] = system: TO-3-N3 (biotin conjugate); conditions: RNA library: Library-2
Outline: (§1)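 An RNA library (1 μg) carrying a Cy5 or Cy3 end label was heat-folded in phosphate/NaCl/KCl buffer, then incubated for 60 min at 25 °C with streptavidin beads loaded with 100 pmol of biotin-conjugated small molecule. The beads were washed three times, and bound RNA was released in hot SDS and hybridised to a DNA barcode microarray for 20 h at 55.5 °C. Each binding score was derived by subtracting the signal from beads without compound, averaging the barcoded replicate probes after removing the highest and lowest, and expressing the result as a Z-score relative to the library mean and standard deviation.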

[2] = system: G-clamp-N3 (biotin conjugate); conditions: RNA library: Library-1 (pre-miRNA loops + repeats)
Outline: as §1

[3] = system: TO-N3-2 (biotin conjugate); conditions: RNA library: Library-2
Outline: as §1

[4] = system: TO-3-N3-2 (biotin conjugate); conditions: RNA library: Library-2
Outline: as §1

[5] = system: TO-N3 (biotin conjugate); conditions: RNA library: Library-2
Outline: as §1

Row | Sequence | pull-down binding Z-score [1] | pull-down binding Z-score [2] | pull-down binding Z-score [3] | pull-down binding Z-score [4] | pull-down binding Z-score [5]
1 | GUUGGGGAACAGGUGGUUAGCACUUCAU [hsa-mir-5196] | 1.07 | 0.351 | 0.81 | 0.521 | 1.35
2 | CGCGGAGCAGCGCUGGGUGCAGCGCCUG [hsa-mir-4508] | -0.051 | -0.567 | 1.5 | -0.27 | 0.334
3 | ACCCAGGACUCUUUCAUGACCA [hsa-mir-665] | -0.0474 | -0.54 | 0.384 | 0.144 | 0.101
4 | AAAUAAAAGAUGGAGUCGUUUGACGUCUUUUAACACCCUUU [hsa-mir-8055] | -0.623 | -0.175 | -0.866 | -0.1 | -0.706
5 | UGGCUUCUGCCUCUUUCUUUGUGGAAGCCA [hsa-mir-4269] | 0.255 | 1.04 | -1.13 | -0.369 | -0.118
6 | AGUCCUGUAAUUAGAUCUCAGGACU [hsa-mir-625] | -0.745 | -0.0681 | -0.88 | -0.739 | -0.817
7 | CCCACUCCAAAGUUCACAGAAUGGGUGG [hsa-mir-541] | 2.05 | 0.626 | 1.15 | 0.837 | 1.8
8 | CUUGCUUUGAAACUAAAGAAGUAAG [hsa-mir-302a] | -0.0041 | 0.749 | -0.319 | -0.131 | -0.193
9 | GAACACUAUUCCAUUGUGUUC [hsa-mir-588] | -0.971 | 0.0194 | -1.31 | -0.701 | -1.33
10 | AGUGCAGUAUGGUGAAGUCAAUCUGUAAU [hsa-mir-590] | -0.357 | 1.31 | 0.424 | 0.0335 | -0.148
11 | GUGUCGCCCCACGAGGGGGACUGU [hsa-mir-4322] | -0.00462 | -0.152 | 0.483 | -0.362 | 0.327
12 | UUAUGUUUCUGAUCCGAAUAUAA [hsa-mir-208b] | -0.229 | 0.538 | -0.679 | -0.345 | -0.483
13 | AGCUGGCUGAAGGGCAGAAGGGAACUGUCCUUCAGCCAGAG [hsa-mir-4487] | -0.276 | -0.139 | -0.122 | -0.156 | -0.243
14 | UUAAUGAGGCCAUAGA [hsa-mir-6863] | -0.374 | -0.397 | -0.294 | -0.277 | -0.328
15 | CUUGGCUUCAAUUUACUCCCAGG [hsa-mir-4446] | 0.257 | -1.06 | 0.323 | -0.0843 | 0.101
16 | CCAUAAGCUGUCUAAAACUUCG [hsa-mir-4513] | -0.354 | -1.21 | -0.0485 | -0.153 | -0.327
17 | ACGAUAUAUAUACUGCCCUGCUUUUAUACAUACAUACAUACAUACCUAUAUCGU [hsa-mir-4536-1] | -0.603 | -0.956 | -0.809 | -0.00614 | -0.734
18 | CCUGCCUCAGAACUACUGAACAGAGUCACUGGGUGUGGA [hsa-mir-1289-2] | -0.292 | 0.873 | 0.785 | -0.00545 | 0.181
19 | UAGGCUGUUUCCAUCUGUGAGGCCUA [hsa-mir-26a-2] | -0.164 | -0.141 | -0.00853 | -0.375 | -0.233

Row | Sequence | pull-down binding Z-score [1] | pull-down binding Z-score [2] | pull-down binding Z-score [3] | pull-down binding Z-score [4] | pull-down binding Z-score [5]
20 | UGUCAUUACUUUCAAUGGCA [hsa-mir-548h-2] | -0.726 | 0.222 | -1.22 | -0.4 | -0.978
21 | CCCUGCCCAGUGCAGGAG [hsa-mir-6069] | -0.42 | 0.386 | -0.914 | -0.478 | -0.817
22 | CAUGCGCUAUCUCUGUGUCGUAUG [hsa-mir-380] | -0.0846 | -0.269 | -0.0393 | -0.301 | -0.0621
23 | UGUCAUUACUUUUAACUGUA [hsa-mir-548h-5] | 1.2 | -0.935 | -0.469 | 0.219 | 1.07
24 | CAUUACUAAACUCAGUAAUG [hsa-mir-451b] | -0.822 | 0.93 | -1.68 | -0.862 | -1.23
25 | GUCACUGUCUCAAAUCAGUGAC [hsa-mir-549a] | 0.183 | -0.711 | -1.33 | -0.427 | -0.129
26 | GGGGCUGGUUGUCUA [hsa-mir-6080] | 0.297 | 0.388 | 0.516 | -0.165 | 0.377
27 | CCAUUAUUUUUAAUAAUUAUAAUAAUGG [hsa-mir-548s] | 0.0929 | 0.705 | -1.2 | -0.237 | -0.233
28 | CAUGAGCCCUUUGGAAAGGUCUCGUG [hsa-mir-4711] | 0.395 | -0.633 | -0.478 | -0.105 | 0.16
29 | AUGGUUUAGAGUUACACCCUGGGAGUUAACUGU [hsa-let-7c] | 0.351 | -0.228 | 0.0342 | 0.565 | 0.437
30 | GCAGUCUGCUUUGUGCCAACACUGGGGUGAUGACUGC [hsa-mir-3157] | 0.502 | 1.23 | 0.186 | -0.203 | 0.442
31 | UGGAGCUAGACCACAUGGGUUCA [hsa-mir-5100] | -0.111 | -0.932 | 0.244 | -0.115 | -0.131
32 | GUAUGAGUGCCACAGAGCCGUCAUAA [hsa-mir-9-3] | 0.938 | -0.99 | 1.73 | -0.231 | 1.39
33 | UUGUGGCUUUGGGUGGAUAUUAAUCAGCCACAG [hsa-mir-383] | 0.257 | 0.747 | 0.0594 | 0.274 | 0.0969
34 | UUCUGUGGUUUGAAAGGAA [hsa-mir-1323] | 0.85 | 1.07 | -0.252 | 0.281 | 0.444
35 | CUUUGUCAUUAAAACCAAUAACAAAA [hsa-mir-548ap] | 0.331 | -0.92 | -0.638 | 0.223 | 0.0976
36 | GGGGAUGGACUGGAAGUGGGCAGCAUGGAGCUGACCUUCAUCAUGGCUUGGCCAACAUAAUGCCUC [hsa-mir-1236] | 1.72 | -0.0946 | 1.38 | 1.33 | 1.98
37 | CCCUGGGGAGCUGCUGCAGGCAGCAGGUGGGCGGGACGCCAGCAGGCUGUCUAGCUGUUCCCAUGAUGG [hsa-mir-6843] | 0.919 | 2.14 | 2.24 | 0.49 | 1.81
38 | UCUGCAGGUUCGCACUGAUGCCUGCUCG [hsa-mir-6726] | 0.0628 | 0.44 | 0.569 | -0.102 | 0.309

Row | Sequence | pull-down binding Z-score [1] | pull-down binding Z-score [2] | pull-down binding Z-score [3] | pull-down binding Z-score [4] | pull-down binding Z-score [5]
39 | AUUGAGUUACCUUUCUGACUUUCCCACU [hsa-mir-28] | 0.108 | -0.594 | -0.279 | 0.0519 | -0.0391
40 | ACUUUCUGUUUGAAAGAAAACAAAGU [hsa-mir-519e] | -0.798 | -0.167 | -0.767 | -0.409 | -0.981
41 | CCUUCCAAUACCUGUAAGCAGAAGG [hsa-mir-3158-2] | 0.0988 | 0.355 | 0.397 | 0.0627 | 0.0957
42 | GGACCCUCUCUCUACCUCU [hsa-mir-4315-1_4315-2] | -0.211 | -0.489 | 0.0855 | -0.12 | -0.188
43 | UGGCUUGCACCGUGACUCCCUCUCACCAAGCAAGUGUC [hsa-mir-4440] | -0.387 | -0.837 | 0.607 | 0.0231 | 0.0846
44 | GCUGCACUGUCUCCGUCUGCGG [hsa-mir-4519] | -0.24 | -0.081 | 1.43 | 0.0588 | 0.595
45 | AUAUGUGUGUAUAUAUGUACACAUAC [hsa-mir-466] | -0.227 | -0.157 | -1.14 | -0.378 | -0.604
46 | CUCUCGUGUCCACUAGCAGGCAGGUUUUCUGACACAGG [hsa-mir-604] | -0.343 | 0.743 | 0.566 | 0.313 | -0.0789
47 | GUGACGCCGCGAAGUGCAC [hsa-mir-3147] | 0.25 | 1.18 | 0.997 | 0.172 | 0.406
48 | UGGAGGGGGUUUGUUUGCUUAUUCCCCUCU [hsa-mir-6737] | 0.936 | 0.456 | 0.633 | 0.705 | 0.918
49 | GAUCCAGCCCAGGCUGGUUCCGCUGAC [hsa-mir-4522] | 1.15 | -0.211 | 1.51 | 0.351 | 1.23
50 | UUUCCCAUUAUUUUAAUUGCGAA [hsa-mir-570] | -0.699 | -0.975 | -1.16 | -0.363 | -0.927
51 | UGUCUUGUAGCCAGGAUAUUGUUUUAAAGAA [hsa-mir-4668] | -0.404 | -0.739 | -0.355 | 0.00983 | -0.338
52 | AGGGCAGGGGUGUGGCU [hsa-mir-4751] | 3.21 | 0.725 | 1.93 | 2.67 | 2.8
53 | AGGCCGUUGCCAAUCAGAGAACGGCUA [hsa-mir-138-1] | 1.23 | -0.677 | 1.43 | 0.52 | 1.47
54 | GAGUUUGGAGUCGGUGGGUGGAGCCAAACUG [hsa-mir-6860] | 1.13 | 2.37 | 1.52 | 0.706 | 1.5
55 | GUGCAGCUUGUACCUGCAC [hsa-mir-1293] | -0.154 | -0.00619 | -0.592 | -0.574 | -0.0262
56 | UGGUCAGAUAUCCCAU [hsa-mir-8060] | -0.323 | -1.4 | -0.0919 | -0.195 | -0.262
